Measurements published in article PMC9841416.

Biological target: NTH-RNase E wild type (Escherichia coli (K12, P21513-1 in alignment)) (UniProt P21513)
Experiment: competition
Conditions: competitor of 7.5 nM BR15 quadruplex, 20 nM NTH, 25 mM bis-Tris propane pH 8.3, 100 mM KCl, 15 mM CaCl2, 0.1% (v/v) Triton X-100, 1 mM DTT, 20% (v/v) glycerol, 37 C 20 min, 1% agarose gel in 1x TBE

| Substance | IC50 | IC50 (does not compete effectively) |
| --- | --- | --- |
| metU-tRNA with 5' and 3' single-stranded regions | 147 nM | – |
| glnW-metU segment | 229 nM | – |
| glnW-tRNA (no flanking single-stranded regions) | – | > 2500 nM |
